According to publication PMC2112662:

Biological target: type IV (basement membrane) collagen of Np cells (Peak II) (mouse (endogenous in Np fibrosarcoma cells))
Assay: radioligand binding

laminin specifically bound (cpm) at 50 ng 125I-laminin added: 0 cpm | laminin specifically bound (cpm) at 500 ng 125I-laminin added: 9250 cpm
Substance: laminin (from the EHS (Engelbreth-Holm-Swarm) sarcoma) (from UniProt P19137 25-3083; P02469 22-1786; P02468 34-1607) (complex)
